Laboratory results as given in patent publication US20200010571A1 (Janssen / Centocor, published 2020).
Where “and” joins values, the source holds several entries; their conditions need not be identical. Identical values can stand only once.

What was measured:
[1] = biological target: T1, human IL-17A (recombinant) (human, UniProt Q16552 24-155); assay: competition ELISA: biotinylated rhIL-17A binding to plate-coated rhIL-17RA-Fc; Experiment 1; 95% CI 0.09343-0.1160
T1 construct: Biotinylated in the IL-17RA ELISA; also called rhIL-17A

[2] = biological target: protease-resistant form of human transmembrane TNF-α (lacks amino acids Val1 to Pro12) overexpressed by K2 … (human, UniProt P01375 1-233); assay: cell-based or functional assay
[3] = biological target: T2, rhTNF-α (recombinant human, soluble) (human, UniProt P01375 77-233); assay: SPR (Biacore 3000), mAb captured by anti-IgG Fc, antigen in solution, 25 C, 1:1 Langmuir
T2 construct: also called human TNF-α; soluble rhTNF-α

[4] = biological target: T2, rhTNF-α (recombinant human, soluble); assay: cell-based or functional assay
cynomolgus TNF-α [5] = biological target: T3, cynomolgus TNF-α (cynomolgus, UniProt P79337 77-233); assay: cell-based or functional assay
[6] = biological target: T1, human IL-17A (recombinant); assay: cell-based or functional assay
[7] = biological target: T4, recombinant human IL-17A/F heterodimer (human, UniProt Q16552 24-155; Q96PD4 31-163); assay: cell-based or functional assay
[8] = biological target: T1, human IL-17A (recombinant); assay: competition ELISA: biotinylated rhIL-17A binding to plate-coated rhIL-17RA-Fc
cynomolgus IL-17A [9] = biological target: T5, cynomolgus IL-17A (cynomolgus, UniProt Q16552 24-155 (human entry), limits assumed); assay: SPR (Biacore 3000), mAb captured by anti-IgG Fc, antigen in solution, 1:1 Langmuir;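 note: run in PBS containing BSA and P20 at 25 °C, antigen injected at four dilutions, 3 min association, dissociation followed 20 min to 2 h, two independent experiments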
T5 construct: also called Cyno IL-17A
T5 chain: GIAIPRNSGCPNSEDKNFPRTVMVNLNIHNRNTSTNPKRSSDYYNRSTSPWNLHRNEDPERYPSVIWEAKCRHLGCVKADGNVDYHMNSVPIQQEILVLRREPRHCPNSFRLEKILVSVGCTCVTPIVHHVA

rat IL-17A = biological target: T6, rat IL-17A (rat, UniProt Q61453 18-150); assay: as above
T6 chain: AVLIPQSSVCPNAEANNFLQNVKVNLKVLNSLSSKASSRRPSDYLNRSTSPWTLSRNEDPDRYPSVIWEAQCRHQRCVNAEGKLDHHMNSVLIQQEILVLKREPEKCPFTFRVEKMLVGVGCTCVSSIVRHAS

mouse IL-17A = biological target: T7, mouse IL-17A (mouse, UniProt Q62386 26-158); assay: as above
T7 sequence: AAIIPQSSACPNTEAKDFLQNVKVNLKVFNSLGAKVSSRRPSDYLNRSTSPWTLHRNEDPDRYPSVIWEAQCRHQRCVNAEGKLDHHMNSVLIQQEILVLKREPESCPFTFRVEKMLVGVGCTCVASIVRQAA

[10] = biological target: T1, human IL-17A (recombinant); assay: competition ELISA: biotinylated rhIL-17A binding to plate-coated rhIL-17RA-Fc; Experiment 3; 95% CI 0.2433-0.2757
[11] = biological target: T2, rhTNF-α (recombinant human, soluble); assay: cell-based or functional assay; remark: listed apart in the source
[12] = biological target: T2, rhTNF-α (recombinant human, soluble); assay: cell-based or functional assay; remark: listed apart in the source
cynomolgus IL-17A [13] = biological target: T5, cynomolgus IL-17A; assay: cell-based or functional assay
rat TNF-α = biological target: T8, rat TNF-α (rat, UniProt P16599 80-235); assay: SPR (Biacore 3000), mAb captured by anti-IgG Fc, antigen in solution
T8 sequence: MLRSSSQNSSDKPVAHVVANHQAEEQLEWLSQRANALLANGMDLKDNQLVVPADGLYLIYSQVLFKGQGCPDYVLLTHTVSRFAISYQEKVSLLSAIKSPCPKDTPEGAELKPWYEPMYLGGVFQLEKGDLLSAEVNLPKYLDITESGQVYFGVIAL

mouse TNF-α = biological target: T9, mouse TNF-α (mouse, UniProt P06804 80-235); assay: as above
T9 sequence: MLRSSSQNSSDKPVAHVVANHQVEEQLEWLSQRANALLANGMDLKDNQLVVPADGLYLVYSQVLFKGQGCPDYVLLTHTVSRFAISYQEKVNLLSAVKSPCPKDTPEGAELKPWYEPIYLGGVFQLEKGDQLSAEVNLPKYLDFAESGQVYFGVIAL

recombinant human IL-17F = biological target: T10, recombinant human IL-17F (human, UniProt Q96PD4 31-163); assay: binding to rhIL-17A in the absence or presence of IL-17F
T10 sequence: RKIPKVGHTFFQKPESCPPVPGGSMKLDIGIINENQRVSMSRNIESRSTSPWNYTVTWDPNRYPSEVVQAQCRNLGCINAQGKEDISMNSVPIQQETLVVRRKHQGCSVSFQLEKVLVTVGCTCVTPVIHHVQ

[14] = biological target: T1, human IL-17A (recombinant); assay: SPR (Biacore 3000), mAb captured by anti-IgG Fc, antigen in solution, 25 C, 1:1 Langmuir
[15] = biological target: T4, recombinant human IL-17A/F heterodimer; assay: cell-based or functional assay; remark: listed apart in the source
cynomolgus TNF-α [16] = biological target: T3, cynomolgus TNF-α; assay: SPR (Biacore 3000), mAb captured by anti-IgG Fc, antigen in solution, 1:1 Langmuir
[17] = biological target: T1, human IL-17A (recombinant); assay: cell-based or functional assay; remark: listed apart in the source
[18] = biological target: T1, human IL-17A (recombinant); assay: competition ELISA: biotinylated rhIL-17A binding to plate-coated rhIL-17RA-Fc; Experiment 2; 95% CI 0.1474-0.1920
cynomolgus IL-17A [19] = biological target: T5, cynomolgus IL-17A; assay: cell-based or functional assay
[20] = biological target: native (endogenous) human TNF-α (human, UniProt P01375 77-233); assay: cell-based or functional assay

IC50 [1]: 0.104 µg/mL
Kd [3]: 18.8 pM and 21.1 pM
koff [3]: 3.81e-05 s⁻¹ and 3.63e-05 s⁻¹
kon [3]: 2.02e+06 M⁻¹ s⁻¹ and 1.72e+06 M⁻¹ s⁻¹
IC50 (µg/mL); Inhibition of native IL-17A mediated GROα production by NHDF; Experiment 1 [6]: 0.081 µg/mL
IC50 (µg/mL); Inhibition of native IL-17A mediated GROα production by NHDF; Experiment 2 [6]: 0.0648 µg/mL
IC50 (µg/mL); Inhibition of native IL-17A mediated GROα production by NHDF; Experiment 3 [6]: 0.0508 µg/mL
IC50 (µg/mL); Inhibition of IL-17A/F mediated GROα production by NHDF; Experiment 1 [7]: 0.549 µg/mL
IC50 (µg/mL); Inhibition of IL-17A/F mediated GROα production by NHDF; Experiment 2 [7]: 0.436 µg/mL
IC50 (µg/mL); Inhibition of IL-17A/F mediated GROα production by NHDF; Experiment 3 [7]: 0.392 µg/mL
fold IC50 against the parental anti-IL-17A antibodies mAb 4782 and mAb 7206 [8]: ~3 fold
Kd (cynomolgus IL-17A [9]): 23.6 pM and 31.8 pM
koff (cynomolgus IL-17A [9]): 3.66e-05 s⁻¹ and 4.57e-05 s⁻¹
kon (cynomolgus IL-17A [9]): 1.55e+06 M⁻¹ s⁻¹ and 1.43e+06 M⁻¹ s⁻¹
Kd (rat IL-17A): 15400 pM
koff (rat IL-17A): 0.00316 s⁻¹
kon (rat IL-17A): 205000 M⁻¹ s⁻¹
Kd (mouse IL-17A): 997 pM
koff (mouse IL-17A): 0.00103 s⁻¹
kon (mouse IL-17A): 1.03e+06 M⁻¹ s⁻¹
IC50 [10]: 0.259 µg/mL
IC50 (µg/mL); Inhibition of cyno IL-17A mediated IL-6 production by NHDF; Experiment 2 (cynomolgus IL-17A [13]): 0.0784 µg/mL
IC50 (µg/mL); Inhibition of cyno IL-17A mediated IL-6 production by NHDF; Experiment 3 (cynomolgus IL-17A [13]): 0.0583 µg/mL
binding result (rat TNF-α): no binding (tested: up to 100 nM)
binding result (mouse TNF-α): no binding (tested: up to 100 nM)
binding result (recombinant human IL-17F): no binding
Kd [14]: 22 pM and 45.3 pM
koff [14]: 4.15e-05 s⁻¹ and 3.99e-05 s⁻¹
kon [14]: 1.88e+06 M⁻¹ s⁻¹ and 882000 M⁻¹ s⁻¹
IC50 (µg/mL); Inhibition of IL-17A/F mediated IL-6 production by NHDF; Experiment 1 [15]: 0.135 µg/mL
IC50 (µg/mL); Inhibition of IL-17A/F mediated IL-6 production by NHDF; Experiment 2 [15]: 0.174 µg/mL
IC50 (µg/mL); Inhibition of IL-17A/F mediated IL-6 production by NHDF; Experiment 3 [15]: 0.131 µg/mL
Kd (cynomolgus TNF-α [16]): 399 pM and 186 pM
koff (cynomolgus TNF-α [16]): 0.000103 s⁻¹ and 0.000127 s⁻¹
kon (cynomolgus TNF-α [16]): 259000 M⁻¹ s⁻¹ and 681000 M⁻¹ s⁻¹
IC50 (µg/mL); Inhibition of native IL-17A mediated IL-6 production by NHDF; Experiment 1 [17]: 0.0501 µg/mL
IC50 (µg/mL); Inhibition of native IL-17A mediated IL-6 production by NHDF; Experiment 2 [17]: 0.0445 µg/mL
IC50 (µg/mL); Inhibition of native IL-17A mediated IL-6 production by NHDF; Experiment 3 [17]: 0.049 µg/mL
IC50 [18]: 0.168 µg/mL
IC50 (µg/mL); Inhibition of cyno IL-17A mediated GROα production by NHDF; Experiment 1 (cynomolgus IL-17A [19]): 0.299 µg/mL
IC50 (µg/mL); Inhibition of cyno IL-17A mediated GROα production by NHDF; Experiment 2 (cynomolgus IL-17A [19]): 0.329 µg/mL
IC50 (µg/mL); Inhibition of cyno IL-17A mediated GROα production by NHDF; Experiment 3 (cynomolgus IL-17A [19]): 0.137 µg/mL
B1: mAb 9762 (bispecific anti-TNF-α/IL-17A antibody, IgG1) (bispecific antibody)
heavy 1: not shown
light 1: not shown
heavy 2: not shown
light 2: QSVLTQPPSVSVAPGQTARISCSGDNLGDKYANWYQQKPGQAPVLVIYDDIDRPSGIPERFSGSNSGNTATLTISGTQAEDEADYYCGSYDFFLGMIVFGGGTKLTVLGQPKAAPSVTLFPPSSEELQANKATLVCLISDFYPGAVTVAWKADSSPVKAGVETTTPSKQSNNKYAASSYLSLTPEQWKSHRSYSCQVTHEGSTVEKTVAPTECS
IC50 (nM); KYM-1D4 cells, cytotoxicity mediated by membrane bound human TNF-α; Experiment 1 [2]: 0.82 nM
IC50 (nM); KYM-1D4 cells, cytotoxicity mediated by membrane bound human TNF-α; Experiment 2 [2]: 0.966 nM
IC50 (nM); KYM-1D4 cells, cytotoxicity mediated by membrane bound human TNF-α; Experiment 3 [2]: 0.425 nM
IC50 (nM); WEHI-164 cells cytotoxicity mediated by soluble rhTNF-α; Experiment 1 [4]: 1.28 nM
IC50 (nM); WEHI-164 cells cytotoxicity mediated by soluble rhTNF-α; Experiment 2 [4]: 2.07 nM
IC50 (nM); WEHI-164 cells cytotoxicity mediated by soluble rhTNF-α; Experiment 3 [4]: 0.631 nM
IC50 (nM); Inhibition of cyno TNF-α mediated cytotoxicity in WEHI-164 cells; Experiment 1 (cynomolgus TNF-α [5]): 4.42 nM
IC50 (nM); Inhibition of cyno TNF-α mediated cytotoxicity in WEHI-164 cells; Experiment 2 (cynomolgus TNF-α [5]): 20.6 nM
IC50 (nM); Inhibition of cyno TNF-α mediated cytotoxicity in WEHI-164 cells; Experiment 3 (cynomolgus TNF-α [5]): 9.29 nM
fold of IC50 against the parental anti-TNF-α antibodies mAb 9809 and mAb 6696; rhTNF-α-induced cytotoxicity in WEHI-164 cells [11]: ~3 fold
IC50 (nM); KYM-1D4 cells, cytotoxicity mediated by soluble rhTNF-α; Experiment 1 [12]: 0.152 nM
IC50 (nM); KYM-1D4 cells, cytotoxicity mediated by soluble rhTNF-α; Experiment 2 [12]: 0.343 nM
IC50 (nM); KYM-1D4 cells, cytotoxicity mediated by soluble rhTNF-α; Experiment 3 [12]: 0.169 nM
IC50 (nM); KYM-1D4 cells, cytotoxicity mediated by endogenous soluble TNF-α; Experiment 1 [20]: 0.346 nM
IC50 (nM); KYM-1D4 cells, cytotoxicity mediated by endogenous soluble TNF-α; Experiment 2 [20]: 0.327 nM
IC50 (nM); KYM-1D4 cells, cytotoxicity mediated by endogenous soluble TNF-α; Experiment 3 [20]: 0.197 nM
